# Test results: the nanobody polyreactivity screen of Harvey et al. (2022)
# Experiment: yeast display, Sf9 membrane polyspecificity reagent, FACS + sequencing; frameworks hold sequencing errors
# How it was run: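 Sorting gates, low and high (top ~1%), were placed on anti-HA fluorescence to track expression and on streptavidin fluorescence to track reagent binding. A clone's polyreactivity label is taken from the gate it came out of. The reagent was 10% biotinylated, detergent-solubilized Sf9 membrane, applied for 1 hour at 4 °C to galactose-induced yeast display cells.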
row,Sequence,polyreactivity (PSR sort gate)
1,QVQLVESGGGLVQAGGSLRLSCAASGSTFEGNDMGWYRQAPGKERELVASITSDTSTYADSVKGRFTISRDNAKNTVYLQMNSLKPEDTAVYYCNTGSYAETYYWITDPYDYWGQGTQVNVSS,low polyreactivity
2,QVQLVESGGGLVQAGGSLRLSCAASGSTFEIYAMGWYRQAPGKERELVAAITRSGRTNYADSVKGRFTISRDNAKNTVYLQMNSLKPEDTAVYYCAAGVWGRDRKYGYWGQGTQVTVSS,high polyreactivity
3,QVQLVESGGGLVQAGGSLRLSCAASGSTFELYAMGLYRQAPGKERELVASITGDSTNYADSVKGRFTISRDNAKNTVYLQMNSLKPEDTAVYYCAAEYVPYYEYESWGQGTQVTVSS,low polyreactivity
4,QVQLVESGGGLVQAGGSLRLSCAASGSTFEPNAMGWYRQAPGKERELVAAIDTDASTYYADSVKGRFTISRDNAKNTVYLQMNSLKPEDTAVYYCAADYYIAITYYDGDDYWGQGTQVTVSS,low polyreactivity
5,QVQLVESGGGLVQAGGSLRLSCAASGSTFEPNGMGWYRQAPGKETELVAVITSGRTNYADSVKGSFTISRDNAKNTVYLQMNSLKPEDTAVYYCNAEGNGIYDYWGQGTQVTVSS,low polyreactivity
6,QVQLVESGGGLVQAGGSLRLSCAASGSTFEQNAMGWYRPAPGKEREFVAAITGSGGSTYYADSVKGRFTISRDNAKNTVYLQMNSMKPEDTAVYYCAADIQDGWYWWDIYDYWGQGTQVTVSS,low polyreactivity
7,QVQLVESGGGLVQAGGSLRLSCAASGSTFERYAMGWYRQEPGKEREFVAAISAIGDSTYYADSVKGRFTITRDNAKNTVYLQMNILKPEDTAVYYCAARYTPYHIGRGYYYWGQGTQVTVSS,high polyreactivity
8,QVQLVESGGGLVQAGGSLRLSCAASGSTFETNAMGWYRQAPGKERELVAAIRWSTGNTYYADSVKGRFTISRDNAKNTVYLQMNSLKPEDTAVYDCAAYKGKHDKEGYWGQGTQVTVSS,low polyreactivity
9,QVQLVESGGGLVQAGGSLRLSCAASGSTFETYAMGWYRQAPGKERELVATISLSGGRTYYADSVKGRFTISRDNAKNTVYLQMNSLKPEDTAVYYCNADGYGNVGGGDSWGQGTQVTVSS,low polyreactivity
10,QVQLVESGGGLVQAGGSLRLSCAASGSTFEVYAMGWYRQAPGKERELVAAINSRGTSTYYADSVKGRFTISRDNAKNTVYLQMNSLKPEDTAVYYCNAVRDWGPSQVYDGMDYWGQGTQVTVSS,low polyreactivity
11,QVQLVESGGGLVQAGGSLRLSCAASGSTFEYNAMGWYRQAPGKERELVASSTNYADSVKGRFTISRDNAKNTVYFQMNSLKPEDTAVYYCAREQGVNRNNDYWGQGTQVTVSS,low polyreactivity
12,QVQLVESGGGLVQAGGSLRLSCAASGSTFEYNAMGWYRQAPGKERELVASSTNYADSVKGRFTISRDNAKNTVYLQMNSLKPEDTAVYYCAREQGVNRNHDYRGQGTQVTVSS,low polyreactivity
13,QVQLVESGGGLVQAGGSLRLSCAASGSTFEYYVMGWYRQAPGKERELVAAISGSGGGTYYADSVKGRFTISRDNEKNTVYLQMNSLKPEDTAVYYCAAVATQEKYDYWGQGTQVTVSS,low polyreactivity
14,QVQLVESGGGLVQAGGSLRLSCAASGSTFFDYAMGWYRQAPGKERELVAAISSGGSTKYADSVKGRFTISRDNAKNTVYLQMNSLKPEDTAVYYCAATRWNGRRGYGYWGQGTQVTVSS,high polyreactivity
15,QVQLVESGGGLVQAGGSLRLSCAASGSTFFGNAMGWYRQAPGKERELVAAITSGGSTNYADSVKGRFTISRDNAKNTVYFQMNSLKPEDTAVYYCAKPSRWGWTGFYAYDYWGQGTQVTVSS,low polyreactivity
16,QVQLVESGGGLVQAGGSLRLSCAASGSTFFGNAMGWYRQAPGKERELVAAITSGGSTNYADSVKGRFTISRDNAKNTVYLQMNSLKPEDTAVYYCAKPSRWGWTGFYAYDYWGQGTQVTVSS,low polyreactivity
17,QVQLVESGGGLVQAGGSLRLSCAASGSTFFGYAMGWYRQAPGKERELVATISSGDSTNYADSVKGRFTISRDNAKNTVYLQMNSLKPEDTAVYYCAAQGGDGVLALYYYWGQGTQVTVSS,low polyreactivity
18,QVQLVESGGGLVQAGGSLRLSCAASGSTFFGYVMGWDRQAPGKERELVAAIRSSGGSTYYADSVKGRFTISRDNAKNTVYLQINSLKPEDTAVYYCAASYRYDAYSHYDYWGQGTQVTVSS,low polyreactivity
19,QVQLVESGGGLVQAGGSLRLSCAASGSTFFHYARGWYRQAPGKERELVAAISGSGGSTYYADSVKGRFTISRDNAKNTVYLQMNSLKPEDTAVYYCNARVWHYTSRTTFDYWGQGTQVTVSS,low polyreactivity
20,QVQLVESGGGLVQAGGSLRLSCAASGSTFFKNAMGWYRQAPGKERELVAAISTGGGSTTYADSVKGRFTISRDNAKNTVYLQMNSLKPEDTAVYYCAAVTLSSTYGGHDYWGQGTQVTVSS,high polyreactivity
21,QVQLVESGGGLVQAGGSLRLSCAASGSTFFKYDMGWYRQAPGKDRELVAVITWSGGTTFYADSVKGRFTFSRDNAKNTVYLQMNSLKPEDTAVYYGAADYYGYRYDYWGQGTQVTVSS,low polyreactivity
22,QVQLVESGGGLVQAGGSLRLSCAASGSTFFLYDKGWYRQAPGKERELVAAITLSGGSTYYADSVKGRFTISRDNAKNTVYLQMNSLNPEDTAVYYCADKRHGSEVGRGRDYWGQGTQVTVSS,high polyreactivity

row,Sequence,polyreactivity (PSR sort gate)
1,QVQLVESGGGLVQAGGSLRLSCAASGSTFFLYGMGWYRQAPGKERELVAAITWNGGSTYYADSVKGRFTISRDNAKNTVYLQMNSLKPEDTAVYYCAADYYGYFSTPYDYWGQGTQVTVSS,low polyreactivity
2,QVQLVESGGGLVQAGGSLRLSCAASGSTFFNYAMGLYRQAPGKERELVAAITSVGSTYYADSVKGRFTISRDNAKYTVYLQMNSLKPEDTAVYYCNAESYFWDFYDYDHWGQGTQVTVSS,low polyreactivity
3,QVQLVESGGGLVQAGGSLRLSCAASGSTFFPNAMGWYRQAPGKERELIADISISGGSTRYADSVKGRFTISRDNEKNTVYLQMNSLKPEDTAVYYCAVRRSAFYARFGRNYWGQGTQVTVSS,low polyreactivity
4,QVQLVESGGGLVQAGGSLRLSCAASGSTFFPYAMGWYRQAPGKERELVADITYSGASTYYADSVKGRFTISRDNAKNTVYLQMNSLKPEDTAVYYCAALVWYGYYSLGQGTQVTVSS,low polyreactivity
5,QVQLVESGGGLVQAGGSLRLSCAASGSTFFPYAMGWYRQAPGKVRELVAAIRWSGGRTYYADSVKGRFTISRDNPKNTVFLQMNSLKPEDTAVYYCNGYSVYVRGEYWGQGTQVTVSS,high polyreactivity
6,QVQLVESGGGLVQAGGSLRLSCAASGSTFFQYAMGWYRQAPGKERELVAAITSGGSTNYADSVKGRFTISRDNAKNTVYLQMNSLKPEDTAVYYCAAESKSGAFDYWGQGTQVTVSS,low polyreactivity
7,QVQLVESGGGLVQAGGSLRLSCAASGSTFFRYAMGWYRQAPGKEREFVAAITSSGGNTYYADSVKGRFTISRDNAKNTVYLQMNSLKPEDTAVYYCAAVWYSPYVKYNYWGQGTQVTVSS,low polyreactivity
8,QVQLVESGGGLVQAGGSLRLSCAASGSTFFRYAMGWYRQAPGKERELVAAISASGGRTYYADSVKGRFTISRDNAKNTVYLQMNSLKPEDTAVYYCNRQYGPYQYYYWGQGTQVTVSS,high polyreactivity
9,QVQLVESGGGLVQAGGSLRLSCAASGSTFFRYAMGWYRQAPGKERELVAAISKSGASTYYADSVKGRFTISRDNAKNTVYLQMNSLNPEDTAVYYCNADVKKSSAREWQYGYDYWGQGTQVTVSS,low polyreactivity
10,QVQLVESGGGLVQAGGSLRLSCAASGSTFFRYAMGWYRQAPGKERELVAAISWSGGTTYYADSVKGRFTISRDNAKNTVYLQMNSLKPEDTAVYYCAVDGGRWGQGTQVTVSS,low polyreactivity
11,QVQLVESGGGLVQAGGSLRLSCAASGSTFFRYAMGWYRQAPGKERELVAAITSGGNTYYADSVKGRFTISRDNAKNTVYLQMNSLKPEDSAVYYCAADVYHWIHEYDYWGQGTQVTVSS,low polyreactivity
12,QVQLVESGGGLVQAGGSLRLSCAASGSTFFRYDMGWYRQAPGKERELVADINYNGGSTYYADSVKGRFTISRDNAKNTVYLQMNSLKPEDTAVYYCAAAYRVRGRTYDSWGQGTQVTVSS,high polyreactivity
13,QVQLVESGGGLVQAGGSLRLSCAASGSTFFSNAMGRYRQAPGKERELVAAISWSGGSTYYADSVKGRFTISRDNAKNTVYLKLNSLKPEDTAVYYCGADYYGYWYDFEGDHWGQGTQVTVSS,low polyreactivity
14,QVQLVESGGGLVQAGGSLRLSCAASGSTFFSYDMGWYRQAPGKERELVATISTSVGRTYYADSVKGRFTISRDNAKNTVYLLMNSLKPEDTAVYYCNSDSLGYLYNYYWPAYDHWGQGTQVTVSS,low polyreactivity
15,QVQLVESGGGLVQAGGSLRLSCAASGSTFFTYTMGWYRQAPGKERELVATITTSGGSTYYADSVKGRFTISRDNAKNTVYLQMNSLKPEDTAVYYCAADWDPGYYVQYGYDYWGQGTQVTVSS,low polyreactivity
16,QVQLVESGGGLVQAGGSLRLSCAASGSTFFVNAMGWYRQAPGKERELVAAISTSGGRTYYADSVKGRFTISRDNAKNTVYLQMNSLKPEDTAVYYCAAYLRSPKGYYYWGQGTQVTVSS,high polyreactivity
17,QVQLVESGGGLVQAGGSLRLSCAASGSTFFVYAMGWYRQPPGKERELVADINWSSGITYYADSVKGRFTISRDNAKNNVYLQMNSLKREDTAVYYCKKDERYVTWSYFPNRYNYWGQGTQVTVSS,low polyreactivity
18,QVQLVESGGGLVQAGGSLRLSCAASGSTFFYYAMGWYRQAPGKERELVAAISGNGGSTYYADSVKGRFTISRDNAKNTVYLQMNSLKPEDPAVYYCAAVSSWDEYYYWGQGTQVTVSS,high polyreactivity
19,QVQLVESGGGLVQAGGSLRLSCAASGSTFGANAMGWYRQAPGKEREFVAAISRSGVRTYYADSVKGRFTISRDNAKNTVYVQMNSLKPEDSAVYYCAADGYWLTYTRYDYWGQGTQVTVSS,low polyreactivity
20,QVQLVESGGGLVQAGGSLRLSCAASGSTFGANAMGWYRQAPGKERELVAVITWNDGSTYYADSVKGRFTISRDNAKNTVYLQMNSLKPEDTAVYYCATDPTSGRFYYWGQGTQVTVSS,high polyreactivity
21,QVQLVESGGGLVQAGGSLRLSCAASGSTFGAYAMGWYRQAPGKEREFVAGISVRGGSTYYADSVKGRFTISRDNAKNTVYLQMNSLKPEDTAVYYCAARRVDTRFHVRYRYYYWGQGTQVTVSS,high polyreactivity
